Measurements from IntAct's records for PubMed 21346153.

B1: Peroxiredoxin-6 (Rattus norvegicus (Rat)), O35244 (parent)
chain: MPGGLLLGDEAPNFEANTTIGHIRFHDFLGDSWGILFSHPRDFTPVCTTELGRAAKLAPEFAKRNVKLIALSIDSVEDHFAWSKDINAYNGAAPTEKLPFPIIDDKDRDLAILLGMLDPAEKDEKGMPVTARVVFIFGPDKKLKLSILYPATTGRNFDEILRVVDSLQLTASNPVATPVDWKKGESVMVLPTLPEEEAKQLFPKGVFTKELPSGKKYLRYTPQP

Variants of: B1
Details: with 1433e_human YWHAE

Variant | effect of a mutation on the interaction
S32A | decreasing interaction strength

Variants of: B1
Details: with 1433e_mouse Ywhae

Variant | effect of a mutation on the interaction
S32A | decreasing interaction strength
